Paper PMC2955986 (Journal of thrombosis and haemostasis : JTH, 2010)
Blank lines part the entries; values can stand above or below the molecule they belong to.

Assays:
TFPI (Homo sapiens) = TFPI (Homo sapiens) (UniProt P10646); settings: cited from earlier work
Factor X [1] = experiment: fluid phase binding assay
[2] = biological target: Soluble tissue factor (residues 1-218); experiment: fluid phase binding assay
[3] = biological target: Soluble tissue factor (residues 1-218); experiment: fluid phase binding assay; remark: listed apart in the source
[4] = biological target: Soluble tissue factor (residues 1-218); experiment: ELISA
factor X [5] = biological target: T1, factor X (Homo sapiens, UniProt P00742)
T1 chain: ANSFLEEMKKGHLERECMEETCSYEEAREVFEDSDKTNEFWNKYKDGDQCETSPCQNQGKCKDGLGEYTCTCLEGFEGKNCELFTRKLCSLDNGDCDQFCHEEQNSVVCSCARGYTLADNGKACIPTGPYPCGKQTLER

[6] = biological target: T2, Zn^2+-containing protein S (immunoaffinity-purified) (UniProt P07225 42-676); experiment: fluid phase binding assay
T2 sequence (looked up): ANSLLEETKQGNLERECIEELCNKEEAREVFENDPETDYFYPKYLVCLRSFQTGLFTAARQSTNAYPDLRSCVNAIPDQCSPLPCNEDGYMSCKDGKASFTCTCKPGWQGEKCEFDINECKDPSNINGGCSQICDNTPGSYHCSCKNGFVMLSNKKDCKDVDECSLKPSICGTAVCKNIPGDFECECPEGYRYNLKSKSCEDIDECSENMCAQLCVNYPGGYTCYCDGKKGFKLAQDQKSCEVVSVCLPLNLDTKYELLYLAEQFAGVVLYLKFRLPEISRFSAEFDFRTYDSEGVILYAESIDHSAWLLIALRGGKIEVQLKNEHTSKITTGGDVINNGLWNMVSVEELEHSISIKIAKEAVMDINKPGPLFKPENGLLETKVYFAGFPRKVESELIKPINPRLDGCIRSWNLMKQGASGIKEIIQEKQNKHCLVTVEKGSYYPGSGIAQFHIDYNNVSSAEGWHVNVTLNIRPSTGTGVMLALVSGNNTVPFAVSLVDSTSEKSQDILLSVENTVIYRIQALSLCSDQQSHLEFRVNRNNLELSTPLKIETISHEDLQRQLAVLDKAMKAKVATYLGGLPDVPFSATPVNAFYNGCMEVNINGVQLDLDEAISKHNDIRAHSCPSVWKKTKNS

TFPI (Homo sapiens), sequence (P10646 29-304): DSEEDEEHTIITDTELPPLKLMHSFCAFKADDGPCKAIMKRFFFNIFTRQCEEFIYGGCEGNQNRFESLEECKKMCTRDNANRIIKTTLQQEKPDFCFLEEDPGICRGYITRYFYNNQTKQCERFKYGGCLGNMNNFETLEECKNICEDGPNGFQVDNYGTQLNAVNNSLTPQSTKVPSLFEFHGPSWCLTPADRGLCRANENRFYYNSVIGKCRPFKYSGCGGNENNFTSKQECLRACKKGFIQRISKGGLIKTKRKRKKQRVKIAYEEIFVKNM

Molecule: protein S (from UniProt P07225)
Kd (TFPI (Homo sapiens)): 21 nM

B4: Full length nonlipidated tissue factor (natural protein, UniProt P13726 33-295, looked up)
chain: SGTTNTVAAYNLTWKSTNFKTILEWEPKPVNQVYTVQISTKSGDWKSKCFYTTDTECDLTDEIVKDVKQTYLARVFSYPAGNVESTGSAGEPLYENSPEFTPYLETNLGQPTIQSFEQVGTKVNVTVEDERTLVRRNNTFLSLRDVFGKDLIYTLYYWKSSSSGKKTAKTNTNEFLIDVDKGENYCFSVQAVIPSRTVNRKSTDSPVECMGQEKGEFREIFYIIGAVVFVVIILVIILAISLHKCRKAGVGQSWKENSPLNVS
Kd [6]: 41 nM

Other lines, results leading:

Kd (Factor X [1]): 127 nM
Kd [2]: 41 nM
Kd [3]: 41 nM
B1: Zn^2+-containing protein S (immunoaffinity-purified) (natural protein)
chain: ANSLLEETKQGNLERECIEELCNKEEAREVFENDPETDYFYPKYLVCLRSFQTGLFTAARQSTNAYPDLRSCVNAIPDQCSPLPCNEDGYMSCKDGKASFTCTCKPGWQGEKCEFDINECKDPSNINGGCSQICDNTPGSYHCSCKNGFVMLSNKKDCKDVDECSLKPSICGTAVCKNIPGDFECECPEGYRYNLKSKSCEDIDECSENMCAQLCVNYPGGYTCYCDGKKGFKLAQDQKSCEVVSVCLPLNLDTKYELLYLAEQFAGVVLYLKFRLPEISRFSAEFDFRTYDSEGVILYAESIDHSAWLLIALRGGKIEVQLKNEHTSKITTGGDVINNGLWNMVSVEELEHSISIKIAKEAVMDINKPGPLFKPENGLLETKVYFAGFPRKVESELIKPINPRLDGCIRSWNLMKQGASGIKEIIQEKQNKHCLVTVEKGSYYPGSGIAQFHIDYNNVSSAEGWHVNVTLNIRPSTGTGVMLALVSGNNTVPFAVSLVDSTSEKSQDILLSVENTVIYRIQALSLCSDQQSHLEFRVNRNNLELSTPLKIETISHEDLQRQLAVLDKAMKAKVATYLGGLPDVPFSATPVNAFYNGCMEVNINGVQLDLDEAISKHNDIRAHSCPSVWKKTKNS

Kd [4]: 39 nM
B2: Zn^2+-reconstituted commercial protein S (natural protein)
chain: ANSLLEETKQGNLERECIEELCNKEEAREVFENDPETDYFYPKYLVCLRSFQTGLFTAARQSTNAYPDLRSCVNAIPDQCSPLPCNEDGYMSCKDGKASFTCTCKPGWQGEKCEFDINECKDPSNINGGCSQICDNTPGSYHCSCKNGFVMLSNKKDCKDVDECSLKPSICGTAVCKNIPGDFECECPEGYRYNLKSKSCEDIDECSENMCAQLCVNYPGGYTCYCDGKKGFKLAQDQKSCEVVSVCLPLNLDTKYELLYLAEQFAGVVLYLKFRLPEISRFSAEFDFRTYDSEGVILYAESIDHSAWLLIALRGGKIEVQLKNEHTSKITTGGDVINNGLWNMVSVEELEHSISIKIAKEAVMDINKPGPLFKPENGLLETKVYFAGFPRKVESELIKPINPRLDGCIRSWNLMKQGASGIKEIIQEKQNKHCLVTVEKGSYYPGSGIAQFHIDYNNVSSAEGWHVNVTLNIRPSTGTGVMLALVSGNNTVPFAVSLVDSTSEKSQDILLSVENTVIYRIQALSLCSDQQSHLEFRVNRNNLELSTPLKIETISHEDLQRQLAVLDKAMKAKVATYLGGLPDVPFSATPVNAFYNGCMEVNINGVQLDLDEAISKHNDIRAHSCPSVWKKTKNS

Kd (factor X [5]): ~130 nM
B3: protein S (protein)
chain: ANSLLEETKQGNLERECIEELCNKEEAREVFENDPETDYFYPKYLVCLRSFQTGLFTAARQSTNAYPDLRSCVNAIPDQCSPLPCNEDGYMSCKDGKASFTCTCKPGWQGEKCEFDINECKDPSNINGGCSQICDNTPGSYHCSCKNGFVMLSNKKDCKDVDECSLKPSICGTAVCKNIPGDFECECPEGYRYNLKSKSCEDIDECSENMCAQLCVNYPGGYTCYCDGKKGFKLAQDQKSCEVVSVCLPLNLDTKYELLYLAEQFAGVVLYLKFRLPEISRFSAEFDFRTYDSEGVILYAESIDHSAWLLIALRGGKIEVQLKNEHTSKITTGGDVINNGLWNMVSVEELEHSISIKIAKEAVMDINKPGPLFKPENGLLETKVYFAGFPRKVESELIKPINPRLDGCIRSWNLMKQGASGIKEIIQEKQNKHCLVTVEKGSYYPGSGIAQFHIDYNNVSSAEGWHVNVTLNIRPSTGTGVMLALVSGNNTVPFAVSLVDSTSEKSQDILLSVENTVIYRIQALSLCSDQQSHLEFRVNRNNLELSTPLKIETISHEDLQRQLAVLDKAMKAKVATYLGGLPDVPFSATPVNAFYNGCMEVNINGVQLDLDEAISKHNDIRAHSCPSVWKKTKNS
modifications: Zn2+-containing
